In the Immune Epitope Database (IEDB):
Blank lines part the entries; values can stand above or below the sequence they belong to.

Key:
HLA-A*02:03 = assay: IEDB peptide-MHC binding, purified MHC/direct/fluorescence; filed as Kd, often an IC50 or EC50 that approximates it; ≥ and ≤ were set here for values at or beyond the usual limits of such assays
HLA-A*02:11 = assay: as above
HLA-A*02:12 = assay: as above
HLA-A*02:16 = assay: as above
HLA-A*02:19 = assay: as above
HLA-A*03:01 = assay: as above
HLA-A*26:01 [1] = assay: as above; conditions: source organism: Orthohantavirus moroense
HLA-A*68:02 = assay: as above
HLA-B*15:01 [2] = assay: as above
HLA-A*02:01 [3] = assay: IEDB peptide-MHC binding, purified MHC/competitive/fluorescence; filed as Kd, often an IC50 or EC50 that approximates it; ≥ and ≤ were set here for values at or beyond the usual limits of such assays
HLA-A*69:01 [4] = assay: as above
HLA-B*18:01 [5] = assay: as above
HLA-B*27:03 = assay: as above
HLA-B*39:01 [6] = assay: as above
HLA-A*02:01 [7] = assay: IEDB peptide-MHC binding, purified MHC/direct/fluorescence; filed as Kd, often an IC50 or EC50 that approximates it; ≥ and ≤ were set here for values at or beyond the usual limits of such assays
HLA-A*26:01 [8] = assay: IEDB peptide-MHC binding, purified MHC/competitive/fluorescence; filed as Kd, often an IC50 or EC50 that approximates it; ≥ and ≤ were set here for values at or beyond the usual limits of such assays
HLA-B*15:17 = assay: as above
HLA-B*46:01 [9] = assay: as above
HLA-B*51:01 = assay: as above
HLA-B*57:01 [10] = assay: as above
HLA-A*11:01 = assay: IEDB peptide-MHC binding, purified MHC/direct/fluorescence; filed as Kd, often an IC50 or EC50 that approximates it; ≥ and ≤ were set here for values at or beyond the usual limits of such assays
HLA-B*58:01 = assay: as above
HLA-C*15:02 = assay: as above
HLA-A*24:02 = assay: IEDB peptide-MHC binding, purified MHC/competitive/fluorescence; ≥ and ≤ were set here for values at or beyond the usual limits of such assays; conditions: source organism: Sudan ebolavirus
HLA-A*29:02 = assay: IEDB peptide-MHC binding, purified MHC/direct/fluorescence; filed as Kd, often an IC50 or EC50 that approximates it; ≥ and ≤ were set here for values at or beyond the usual limits of such assays
HLA-A*24:03 = assay: as above; conditions: source organism: Zaire ebolavirus
HLA-B*27:05 = assay: as above
HLA-B*15:01 [11] = assay: IEDB peptide-MHC binding, purified MHC/competitive/fluorescence; filed as Kd, often an IC50 or EC50 that approximates it; ≥ and ≤ were set here for values at or beyond the usual limits of such assays
HLA-A*01:01 = assay: IEDB peptide-MHC binding, purified MHC/direct/fluorescence; filed as Kd, often an IC50 or EC50 that approximates it; ≥ and ≤ were set here for values at or beyond the usual limits of such assays
HLA-A*31:01 = assay: as above
HLA-A*69:01 [12] = assay: as above
HLA-B*18:01 [13] = assay: as above
HLA-B*40:01 = assay: as above
HLA-B*46:01 [14] = assay: as above
HLA-B*48:01 = assay: as above
HLA-B*57:01 [15] = assay: as above
HLA-B*15:42 = assay: IEDB peptide-MHC binding, purified MHC/competitive/fluorescence; filed as Kd, often an IC50 or EC50 that approximates it; ≥ and ≤ were set here for values at or beyond the usual limits of such assays
HLA-B*45:06 = assay: as above
HLA-B*83:01 = assay: as above
HLA-B*44:02 = assay: IEDB peptide-MHC binding, purified MHC/direct/fluorescence; filed as Kd, often an IC50 or EC50 that approximates it; ≥ and ≤ were set here for values at or beyond the usual limits of such assays; conditions: source organism: Yellow fever virus
HLA-B*39:01 [16] = assay: as above; conditions: source organism: Camelpox virus M-96
[17] = source organism: Limestone Canyon virus
[18] = source organism: Orthohantavirus puumalaense
[19] = source organism: Orthohantavirus hantanense
[20] = source organism: Zaire ebolavirus
[21] = source organism: Camelpox virus M-96
[22] = source organism: West Nile virus
[23] = source organism: Mycobacterium tuberculosis C
[24] = source organism: Yellow fever virus
[25] = source organism: human gammaherpesvirus 4

Sequence: ATKDSFQSF
Kd (HLA-A*02:03; [17]): ≥ 20 µM
Kd (HLA-A*02:11; [17]): ≥ 20 µM
Kd (HLA-A*02:12; [17]): ≥ 20 µM
Kd (HLA-A*02:16; [17]): ≥ 20 µM
Kd (HLA-A*02:19; [17]): ≥ 20 µM
Kd (HLA-A*03:01; [17]): ≥ 20 µM
Kd (HLA-A*26:01 [1]): 556 nM
Kd (HLA-A*68:02; [17]): ≥ 20 µM
Kd (HLA-B*15:01 [2]; source organism: Orthohantavirus moroense): 372 nM
Kd (HLA-A*02:01 [3]; [18]): ≥ 20 µM
Kd (HLA-A*69:01 [4]; [18]): ≥ 20 µM
Kd (HLA-B*18:01 [5]; [18]): ≥ 20 µM
Kd (HLA-B*27:03; [18]): ≥ 20 µM
Kd (HLA-B*39:01 [6]; [18]): ≥ 20 µM

Kd (HLA-A*02:01 [7]; source organism: Homo sapiens): 0.0002 µM
Kd (HLA-A*26:01 [8]; source organism: Homo sapiens): ≥ 20 µM
Kd (HLA-A*69:01 [4]; source organism: Homo sapiens): ≥ 20 µM
Kd (HLA-B*15:17; source organism: Homo sapiens): ≥ 20 µM
Kd (HLA-B*27:03; source organism: Homo sapiens): ≥ 20 µM
Kd (HLA-B*46:01 [9]; source organism: Homo sapiens): ≥ 20 µM
Kd (HLA-B*51:01; source organism: Homo sapiens): ≥ 20 µM
Kd (HLA-B*57:01 [10]; source organism: Homo sapiens): ≥ 20 µM
Sequence: FQWHEAMFL

Sequence: ISNQEPLKL
Kd (HLA-A*11:01; [19]): 18.6 µM
Kd (HLA-B*58:01; [19]): 105 nM
Kd (HLA-C*15:02; source organism: Orthohantavirus dobravaense): 9 nM

Sequence: KCNPNLHYW
IC50 (HLA-A*24:02): 376 nM
Kd (HLA-A*02:03; [20]): ≥ 20 µM
Kd (HLA-A*02:11; [20]): ≥ 20 µM
Kd (HLA-A*02:12; [20]): ≥ 20 µM
Kd (HLA-A*02:16; [20]): ≥ 20 µM
Kd (HLA-A*02:19; [20]): ≥ 20 µM
Kd (HLA-A*03:01; [20]): ≥ 20 µM
Kd (HLA-A*29:02; [20]): ≥ 20 µM
Kd (HLA-A*68:02; [20]): ≥ 20 µM
Kd (HLA-B*58:01; source organism: Ebola virus - Eckron (Zaire, 1976)): 2600 nM
Kd (HLA-A*02:01 [3]; [20]): ≥ 20 µM
Kd (HLA-A*26:01 [8]; [20]): ≥ 20 µM
Kd (HLA-A*69:01 [4]; [20]): ≥ 20 µM
Kd (HLA-B*18:01 [5]; [20]): ≥ 20 µM
Kd (HLA-B*27:03; [20]): ≥ 20 µM
Kd (HLA-B*39:01 [6]; [20]): ≥ 20 µM
Kd (HLA-B*46:01 [9]; [20]): ≥ 20 µM

Sequence: KRLQILGYL
Kd (HLA-A*02:03; [20]): ≥ 20 µM
Kd (HLA-A*02:12; [20]): ≥ 20 µM
Kd (HLA-A*02:16; [20]): ≥ 20 µM
Kd (HLA-A*02:19; [20]): ≥ 20 µM
Kd (HLA-A*03:01; [20]): ≥ 20 µM
Kd (HLA-A*24:03): ≥ 20 µM
Kd (HLA-A*29:02; [20]): ≥ 20 µM
Kd (HLA-A*68:02; [20]): ≥ 20 µM
Kd (HLA-B*27:05; source organism: Sudan ebolavirus - Maleo (1979)): 0.204 µM
Kd (HLA-A*02:01 [3]; [20]): ≥ 20 µM
Kd (HLA-A*26:01 [8]; [20]): ≥ 20 µM
Kd (HLA-A*69:01 [4]; [20]): ≥ 20 µM
Kd (HLA-B*15:01 [11]; [20]): ≥ 20 µM
Kd (HLA-B*15:17; [20]): ≥ 20 µM
Kd (HLA-B*18:01 [5]; [20]): ≥ 20 µM
Kd (HLA-B*39:01 [6]; [20]): ≥ 20 µM
Kd (HLA-B*46:01 [9]; [20]): ≥ 20 µM
Kd (HLA-B*51:01; [20]): ≥ 20 µM
Kd (HLA-B*57:01 [10]; [20]): ≥ 20 µM

Kd (HLA-C*15:02; source organism: Histophilus somni 129PT): 266 nM
Sequence: KSLQTTRRF

Sequence: NSNINVINY
Kd (HLA-A*01:01; [21]): 5.44 µM
Kd (HLA-A*02:01 [7]; [21]): ≥ 20 µM
Kd (HLA-A*03:01; [21]): ≥ 20 µM
Kd (HLA-A*11:01; [21]): ≥ 20 µM
Kd (HLA-A*31:01; [21]): ≥ 20 µM
Kd (HLA-A*69:01 [12]; [21]): ≥ 20 µM
Kd (HLA-B*18:01 [13]; [21]): ≥ 20 µM
Kd (HLA-B*27:05; [21]): ≥ 20 µM
Kd (HLA-B*40:01; [21]): ≥ 20 µM
Kd (HLA-B*46:01 [14]; [21]): ≥ 20 µM
Kd (HLA-B*48:01; [21]): ≥ 20 µM
Kd (HLA-B*57:01 [15]; [21]): ≥ 20 µM
Kd (HLA-B*58:01; [21]): ≥ 20000 nM
Kd (HLA-B*15:17; source organism: Vaccinia virus WR): ≥ 20 µM

Sequence: RLARAIIEL
Kd (HLA-A*69:01 [12]; [22]): 3.79 µM
Kd (HLA-C*15:02; [22]): 2420 nM

Sequence: RPMLARLTV
Kd (HLA-B*15:42; [23]): ≥ 5 µM
Kd (HLA-B*45:06; [23]): ≥ 5 µM
Kd (HLA-B*83:01; [23]): 185 nM

Sequence: SCRVKLSAL
Kd (HLA-A*01:01; [24]): ≥ 20 µM
Kd (HLA-A*02:01 [7]; [24]): ≥ 20 µM
Kd (HLA-A*03:01; [24]): ≥ 20 µM
Kd (HLA-A*11:01; [24]): ≥ 20 µM
Kd (HLA-A*29:02; [24]): ≥ 20 µM
Kd (HLA-A*31:01; [24]): ≥ 20 µM
Kd (HLA-A*69:01 [12]; [24]): ≥ 20 µM
Kd (HLA-B*15:01 [2]; [24]): ≥ 20000 nM
Kd (HLA-B*18:01 [13]; [24]): ≥ 20 µM
Kd (HLA-B*27:05; [24]): ≥ 20 µM
Kd (HLA-B*40:01; [24]): ≥ 20 µM
Kd (HLA-B*44:02): ≥ 20 µM
Kd (HLA-B*46:01 [14]; [24]): ≥ 20 µM
Kd (HLA-B*48:01; [24]): ≥ 20 µM
Kd (HLA-B*57:01 [15]; [24]): ≥ 20 µM
Kd (HLA-B*58:01; [24]): ≥ 20000 nM

Sequence: TEMYIMYAM
Kd (HLA-B*15:42; [25]): ≥ 5 µM
Kd (HLA-B*45:06; [25]): ≥ 5 µM
Kd (HLA-B*83:01; [25]): ≥ 5000 nM

Kd (HLA-A*02:01 [3]; source organism: Homo sapiens): ≥ 20 µM
Kd (HLA-A*26:01 [8]; source organism: Homo sapiens): ≥ 20 µM
Kd (HLA-A*69:01 [4]; source organism: Homo sapiens): ≥ 20 µM
Kd (HLA-B*15:01 [11]; source organism: Homo sapiens): ≥ 20 µM
Kd (HLA-B*15:17; source organism: Homo sapiens): ≥ 20 µM
Kd (HLA-B*18:01 [5]; source organism: Homo sapiens): ≥ 20 µM
Kd (HLA-B*27:03; source organism: Homo sapiens): ≥ 20 µM
Kd (HLA-B*39:01 [6]; source organism: Homo sapiens): ≥ 20 µM
Kd (HLA-B*46:01 [9]; source organism: Homo sapiens): ≥ 20 µM
Kd (HLA-B*51:01; source organism: Homo sapiens): ≥ 20 µM
Kd (HLA-B*57:01 [10]; source organism: Homo sapiens): ≥ 20 µM
Sequence: VTENKKIQY

Sequence: YHDDDNTTT
Kd (HLA-B*39:01 [16]): 343 nM
